# In the DeepSol protein solubility set:
# Experiment: soluble on expression in E. coli; label from the status in PepcDB or PDB records
row,Sequence,soluble on expression in E. coli
1,MAHHHHHHMPNNDSHDAQLLRHYAQFFPNVLFTSEEEMEKYCQDARPDAVKKVLDLPEGEEVPEDAMNDPRAHLYILKHIVGRNATTAAFVALRGSDKQKVVAKFIMLNDEKQAAYARSEVHCLAACDHFGIVKHYDDLKSEDKLLLIMEYGSGGDLNKQIKQRLKERLPFKEHEAGLLFYQIVLALDEVHSRKMMHRDLKSANIFLMPTGIIKLGDFGFSKQYTDSVSLDVGSSFCGTPYYLAPELWERKRYSKKADMWSLGVILYELLTLHRPFKGPSQREIMQQVLYGNYDPFPCGVSDGMKAVMEPLLSKDPALRPTTTQLLHTELMKYVANIFEEIVRNSEVIEKHDKERILRQLAESRAKAPPPNSIQAGAVSNDVVREGYLLKYSSDMKWKKRYFSIKNGQLRISLTDNPEKDGVSPKSASLETVNDVFPVPEAYCRSNPHQLVIWFTNGQKIIAMAKSAEERDQWISDFQRACGM,soluble
2,GPGSMLASSSLVSVKRTLRIKVGTSTSERLRAAELDEPTTSSARPPPSAMDLSYITGKMPDTLPAYQTERAVWSATTFRSAWNKLHKAYASFLETDPERAAELRAKDWQGLALYNSYAETLHLMSLLPATLRTAITQHSSFDYTEVEELFVHLGQDVEVRGSGGWVIQLPPPTTADLQYLVKHIGRFGADGRGCVANTAHRASVWRGRHGEALGVTLRVGRYVPGAARALLPLAQRGSLLILSKAGMGKTTLLRDLAAALAQEPGTPRVTVVDTSNEIGGDGPIPLPYLGRCRRIQVAQRQDQGRVMMEVIQNHTPEYLIVDEIATEEEAEAAWSISQRGVHLIGTCHGEHLEGLLQNRALNLLVGGAAQAFLSNEERRLRNKMKKTVLERPYSSPFSFVVELHARNLGHLYVDVNKAVDLVLDEQPAQLNGAVGAAVELSALLPSRVEKLLRLHDERKRKLKYVAGTGTNDAEVGEEDDETATFSSAARGTVDEDGYTLLADDGGDPESKRSIAPSTYAAPNHASGRRPHWQAEKQRRHRKTDDELYGELKGSF,not soluble
3,MAHHHHHHMLQLTVEDLTPEAIAALEVQCKAQAEKVNQLEEAMGLLQKELDDARKKYRSTSKAVQWRRLMAEVENDEDIANITVMMQEALADFYKTMQPPDDYDESREGISFCDTDDYADLTSVETKVDEFLLAIRRLVGENCASPEDDGDRRHQRRRALLMLLVLTINAARITDTPTEDAASLMEEQQDNIASLWQTLLHTDSGLVEAEKSEWKDIVSSFLGPPYDTST,soluble
4,MITLFTFGPSFGLPDASPFVMKAELLLKMAGLPYQTARGNLRRAPKGKLPYLDDMGRIVADSTLIRWHIEKTYHVDFDEGLSPAERGTAWAVEKLMEDNLYWAVARVRWLERDNFERGPAQFFNVVPGPLRGLVKVLVRRKVRQMLWAQGLGRHSEQDMTAMAVQGIKAITDILGDKPYLMGNNPCGADATLFAFAASLLSPVFETPIRAAAESHPNLIAYMARMRTRYYPDFQGSGVFAPASAATAGRPEAAFGQQLEHHHHHH,soluble
5,PSTAAWFNAREQAKLVDLYDSKIENATPLSAEQLLELAHRYNDRLTVGAALDPWANVPRGAGKEDGDGMAYKDQLRVDRTDVMARIRIPSIKVDLPIYHGTSDNTLKKGAGHLEGTSLPVGGPRTHSVITAHRGLAEATMFTNLNKVGVGDRFTIEVMGEVLTYEVRETRVVSPEDTRFLQTQDDRDLVTLVTCTPLGINTHRILVTAERITPTPQSDIDAARQASQIGFP,not soluble
6,EKVIIEKAAGDAEAIAFDGRTYMEYHNAVTKSPDALDYPAEPSEKALQSNHFELSIKTEATQGLILWSGKGLERSDYIALAIVDGFVQMMYDLGSKPVVLRSTVPINTNHWTHIKAYRVQREGSLQVGNEAPITGSSPLGATQLDTDGALWLGGMERLSVAHKLPKAYSTGFIGCIRDVIVDRQELHLVEDALNNPTILHCSAK,soluble
7,PDAARKAQILWCQPDRAKAWTDWMRKGKFPVGGSICDNPVAETTSLGEQFGFNGTPTLVFPNGRSQSGYSPMPQLEEIIRKNQ,not soluble
8,MSLAKVLVIDEDRSTLARLELLLTKDGYETVTASTGTDGLNRYVERYPDLVILDVFLSDVGGFTVLEELLEENEQAMVILMTAQLDMETAIRAMKLGAFDYVPKTADMAELLSVVHKASNTLETDRQQGGLSGEAFRNYKAGDIIGAGREMREIFKMVGVLSRSRATVLIEGESGTGKELVAKVIHKHTSSNEPFIAVNCSAIVETLLESELFGHEKGSFTSAFNRQLGKFELGRYGTVFLDEISEMSINLQAKLLRVLQEMEFERVGGKDKIQVHARIITATNKNLRTLVREGKFRADLYYRLNIVSLKIPPLRERQEDIPLLVNHLIAKIGRDLSRRISGVSEEVMEAFLRYTWPGNVRELENLLVRAGVMAKGRILDKSDFPELFKESGEGHHHHHH,not soluble
9,MHFKTKLKNRRSEVNTCLCIGLDPDEDDIKNFMKNEEQNGYKNIKNNMNSNNNGIENIIKIGKEILLTDGENIQNLSEEDKFFYFFNHFCFYIINNTKEYALVYKMNFAFYIPYGSVGINALKNVFDYLNSMNIPTMLDMKINDIGNTVKNYRKFIFEYLKSDSCTINVYMGTNMLKDICFDYEKNKYYSAYVLIKTTNKDSFIFQNELSINDKQAYIVMADETQKMATELKIEQNNEFIGFVVGSNAFEEMKIIRNKFPDSYILSPGIGAQNGDLYKTLKNGYNKDYEKLLINVGRAITKSPDPKKSSESYYNQIIQIFKDIENGDNIEQV,soluble
10,PATCPIVPGQEMIIEISKGRSGLGLSIVGGKDTPLNAIVIHEVYEEGAAARDGRLWAGDQILEVNGVDLRNSSHEEAITALRQTPQKVRLVVYRDEAHYRDEE,soluble
11,MDLRRFITLKTVVEEGSFLRASQKLCCTQSTVTFHIQQLEQEFSVQLFEKIGRRMCLTREGKKLLPHIYELTRVMDTLREAAKKESDPDGELRVVSGETLLSYRMPQVLQRFRQRAPKVRLSLQSLNCYVIRDALLNDEADVGVFYRVGNDDALNRRELGEQSLVLVASPQIADVDFTEPGRHNACSFIINEPQCVFRQIFESTLRQRRITVENTIELISIESIKRCVAANIGVSYLPRFAVAKELECGELIELPFGEQSQTITAMCAHHAGKAVSPAMHTFIQCVEESFVAG,soluble
12,MGRAELLEGKMSTQDPSDLWSRSDGEAELLQDLGWYHGNLTRHAAEALLLSNGCDGSYLLRDSNETTGLYSLSVRAKDSVKHFHVEYTGYSFKFGFNEFSSLKDFVKHFANQPLIGSETGTLMVLKHPYPRKVEEPSIYESVRVHTAMQTGRTEDDLVPTAPSLGTKEGYLTKQGGLVKTWKTRWFTLHRNELKYFKDQMSPEPIRILDLTECSAVQFDYSQERVNCFCLVFPFRTFYLCAKTGVEADEWIKILRWKLSQIRKQLNQGEGTIRSRSFIFK,soluble
13,MYCHAKLKNISQHTVISAHLFLPDYSPMNRDSFYPAIACFPLLLMLAGCAPMHETRQALSQQTPAAQVDTALPTALKMVGQTANGGWSITIINSLPLEHHHHHH,not soluble
14,ASWSHPQFEKGAMALTEAWLIEKANRKLNAGGMYKITSDKTRNVIKKMAKEGIYLCVAQGYRSTAEQNALYAQGRTKPGAIVTNAKGGQSNHNYGVAVDLCLYTNDGKDVIWESTTSRWKKVVAAMKAEGFKWGGDWKSFKDYPHFELCDAVSGEKIPAATQNTNTNSNRYEGKVIDSA,soluble
15,MYNKDDVLKQADNIANKIKNLDTIKTYQQIEAQIHQNQTIKTKMDMLKKHQKQAVNFQNYGKQNALEQSEHTIQSIEAEINTLPIVEQFQTSQYEANQLLKMFVSTMETRLNDHNKAKHSDLEHHHHHH,not soluble
16,MGSDKIHHHHHHMYDAQAVQTLSSCLLRLKEGKGIGTLVSEDEADLPKVMTRLKQFDPSKNGLSINEIVHLANALIGEHMSATTIQNWTKREVRDIIGVPHRGKKYSINQAAIIYLLDDLKHLFSLEETRELLTIVFKNPNIDEDDLISPLDFYLVYTQHAETSGPIELTEKRLRRSLERINAYRPETVHVLQLCLYARRISHLTHEAKQRLQHVLQT,not soluble
17,MQEYTNHSDTTFALRNISFRVPGRTLLHPLSLTFPAGKVTGLIGHNGSGKSTLLKMLGRHQPPSEGEILLDAQPLESWSSKAFARKVAYLPQQLPPAEGMTVRELVAIGRYPWHGALGRFGAADREKVEEAISLVGLKPLAHRLVDSLSGGERQRAWIAMLVAQDSRCLLLDEPTSALDIAHQVDVLALVHRLSQERGLTVIAVLHDINMAARYCDYLVALRSGEMIAQGTPAEIMRGETLEMIYGIPMGILPHPAGAAPVSFVY,not soluble
18,MTSGANSSGSYLPSEIRSSKIDDNYLKELNEDLKLRKQELLEMLKPLEDKNNLLFQKLMSNLEEKQRSLQIMRQIMAGKGCEESSVMELLKEAEEMKQNLERKNKMLRKEMEMLWNKTFEAEELSDQQKAPQTKNKADLQDGKEKQQRKMEWVKYQEQNNILQNDFHGKVIELRIEALKNYQKANDLKLSLYLQQNFEPMQAFLNLPGSQGIRIV,not soluble
19,MSLSAFDAFPLGQPAFVTNILDRAAHLRRDDEKLFALEQKPSSRAYVVHRDSLLVKREGENVRALLGIDEALKCGANPGTIFLGLRDGAAVFGMGLSQAAAEKLVGREDYSLTELRGMAMQGAIPPDELSAIAMAKSMVSWHQRHGYCANCGTRSAMKEGGWKRDCPACKAEHFPRTDPVVIMLVASGEKCLLGRQKQFPPGMFSCLAGFVEAAETIEDAVRREILEESGIRCTDVQYYMTQPWPYPSSLMIGCSARALNEDIVVDHSELEDARWFTREEAALMLTRTHPDGLAGPHPFAIAHHLLGRWVHDKSGEGHHHHHH,soluble
20,MRLIPLGAAALAGALALAPAARAEMSAAEREAVRAEVRAYLLENPEVLMEAFTALEQRQQLDQVNADLARLQDHSSEIYTDPASWAGGNLQGDITVVEFIDYRCGYCRKANAEVEELVASDGNIRFVLKEYPILGEESVLASRFAISVLQIAGPEPYKAVHDKLITFRGDITTEALGRLADEMKLDRAAILAHMDKDEVTAVIAANHKLAETLEISGTPTFVVDRTMVRGYVPLDGMRQIVEGQRKG,not soluble
21,MGSDKIHHHHHHMNFEVLVKHISTIQNTLQAQAAHAVNLALTSRNWLMGCYIVEFEQNGEDRAAYGEQLLKKLEQRLKTKGLNERRFREFRRLYLVYPQLKESVTQYIASQIQIRQSLTAEFTEPIRRLVTAESENGVWKLSTEHPQTETWMIPADRLFNRLSSTHLNTISGIENPIKRAFYEMETIRGCWSVKELERQIASLYYERSGLSKNKEALSALVQQQVTLLQPKDVINTPVTLEFLGLNERALVTENDLEQSILDNLQHFLLEMGHGFCFEARQKRILIDEDYFFADLVFYHRILKCHIIVELKIDKFRHEYASQLNMYLNYFKAEVMQPDDNPPIGILLCTEKGDTLVKYATAGLDPNIFVQKYMIELPSEEEIKRFILGVNF,not soluble
22,MSHHRSAFFISDRTGITAESLGHTLLTQFDALDFQRETVPFVDTVEKARALAERISEIAERDHLRPLVFTSIVNPEVREALRLNNVVLIDFFESFIGHLEIELGQKATLTVGKAHGMVNEEKYDHRIEAVNFSLNHDDGVKLKDLHEADVILVGVSRSGKTPTCLYLALQYGIRAANYPLTPEDLGSPTLPKMLLPFKDKMFGLTIDPNRLHHIRSERRPDSKYASMDNCRREVNEAESMFRHHGVPFISTTHKSIEEIASTIMHKAALGRKFLEHHHHHH,soluble
